This series relates to MS2 coat protein. The experiment in a line: apparent KD of MS2 coat protein; designed switch direction (-1 OFF switch, 1 ON switch): -1; higher = weaker reporter binding. In short, it runs like this:
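SNAP-549-labelled MS2 coat protein was titrated, doubling from 0.7 or 1.5 nM to 3 µM, over designed RNA switches transcribed on Illumina chips by stalled E. coli RNA polymerase. Runs were done without input, with 200 uM small-molecule ligand, or with an oligonucleotide input. Apparent KD is the per-design median over clusters of curve-fitted normalised fluorescence.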

Setting [1] is: input ligand: microRNA oligo, concentration not stated.
Setting [2] is: Eterna round: R95, input ligand: microRNA oligo, concentration not stated.
The mark [3] stands for this setting: Eterna round: R95, input ligand: FMN 200 uM.
[4] abbreviates: Eterna round: R95, input ligand: none.

With “UUCUAACGAGGAUAUCGAUGGUGGAACAUGAGGAUCACCCAUGUAUGAGAUAUUGUAGUUCGAGAAGGCGUUCAGU [JR_E5_Sub057] (Eterna round: R96, puzzle: Exclusion 5)”, the “apparent KD of MS2 coat protein” value (input ligand: FMN 200 uM) came to 35.9 nM, the “apparent KD of MS2 coat protein” value under setting [1] was 32.3 nM and the “apparent KD of MS2 coat protein” value (input ligand: none) worked out at 48.6 nM.

Turning to “UUCUAACGAGGAUAUCGAUGGUGGAACAUGAGGAUCACCCAUGUAUGAGAUAUUGUAGUUCGAGAAGGCGUUCAGU [JR_E5_Sub057] (puzzle: Exclusion 5)”, the “apparent KD of MS2 coat protein” value under setting [2] came out at 36.6 nM.

In the case of “UUGAACCCGGUAGGAUAUAUUGUGGGCAAACAUGGAACAACAUGAGGAUCACCCAUGUAAUUUAGGUAGAAGGGCCAAAAGAUU [Excl-NG2-LRO06] (Eterna round: R96, puzzle: Exclusion NG 2)”, the “apparent KD of MS2 coat protein” value is 72.1 nM (input ligand: FMN 200 uM), 61 nM under setting [1] and 69.9 nM (input ligand: none).

For “UUGAAGUCAUCAGGAUAUAGUAUUAAAGACAUUUAUUUUUUCAUACAUGAGGAUCACCCAUGUCGCUAGAAGGGAUUAUAGAUU [JR_ExcNG2_Sub079] (Eterna round: R96, puzzle: Exclusion NG 2)”, under setting [1], the “apparent KD of MS2 coat protein” value is 38.4 nM.

As to “UUGACGGCAGGAUAUACAUGAGGAUCACCCAUGUAAAUUUUUCGUUUAACUUGAAUGUGUAGAAGGGCCAACUU [Ex3 #73] (Eterna round: R97, puzzle: Exclusion 3)”, the “apparent KD of MS2 coat protein” value was found to be 18.6 nM (input ligand: FMN 200 uM) and 16.8 nM (input ligand: none).

For “UUGACGUCGUCAGGAUAUAGUUUUAAUGUCAUGCUUUUGUUUUUACAUGAGGAUCACCCAUGUCGCUAGAAGGGACUAAAGAUU [JR_ExcNG2_Sub012] (Eterna round: R96, puzzle: Exclusion NG 2)”, the “apparent KD of MS2 coat protein” value was 33.5 nM (input ligand: FMN 200 uM), 32.8 nM under setting [1] and 35 nM (input ligand: none).

For the sequence “UUGAUAUGAGGAUAUUGCUAAGUCGACAUGAGGAUCACCCAUGUGAAGGAAUGUUUAUUGCAAGAAGGCGUCGCGG [Eternabot (L1) Solution 10] (Eterna round: R97, puzzle: Exclusion 5)”, the “apparent KD of MS2 coat protein” value (input ligand: FMN 200 uM) amounted to 49.5 nM and the “apparent KD of MS2 coat protein” value (input ligand: none) worked out at 60.5 nM.

With “UUGAUGUGAGGAUAUAUAUGGUGGUUUUUUUAUUUUUUAUUACUUGAGGAUCACCCAAGUAGAAGGCGCUACGU [JR_Ex2_Sub069] (Eterna round: R97, puzzle: Exclusion 2)”, the “apparent KD of MS2 coat protein” value amounted to 29.4 nM (input ligand: FMN 200 uM) and 39.3 nM (input ligand: none).

Turning to “UUGCCUAAUGUUAGGAUAUGCGACGGGUGACCGUUGCAGAAGGAACAUGAGGAUCACCCAUGUUUAAUAAAAUC [JL-BMX4-4.43 ViennaUCT mod] (Eterna round: R97, puzzle: Brourd's mod of Exclusion 4)”, the “apparent KD of MS2 coat protein” value (input ligand: FMN 200 uM) came to 69.3 nM and the “apparent KD of MS2 coat protein” value (input ligand: none) turned out to be 14.9 nM.

As for “UUGCGGCAAGGAUAUACAUGAGGAUCACCCAUGUAGUAUUUGGUGCUGGCGAGCUGGUGUAGAAGGUGCACGCA [EX3 B.3] (Eterna round: R97, puzzle: Exclusion 3)”, the “apparent KD of MS2 coat protein” value (input ligand: FMN 200 uM) amounted to 21.2 nM and the “apparent KD of MS2 coat protein” value (input ligand: none) was determined as 16.1 nM.

As to “UUGGCAGGUUUUUUGCUCGACAUGAGGAUCACCCAUGUUGCGUGGGUUGUGUGUGUGCGGUGUAUAUAUAUGGUCCU [-24.8, -48.1 kcal, A 14%] (Eterna round: R97, puzzle: Sensor, turn-off variant 1)”, the “apparent KD of MS2 coat protein” value is 480 nM (input ligand: FMN 200 uM) and 644 nM (input ligand: none).

For “UUGUAACAUGAGGAUCACCCAUGUGAGGAUAUGGUUAAGUAAUGUAAUGUAAAGUAAUCCAGAAGGCACAAGUU [1st #23] (Eterna round: R97, puzzle: Exclusion 1)”, the “apparent KD of MS2 coat protein” value runs as follows: (input ligand: FMN 200 uM) 70.3 nM; (input ligand: none) 78.3 nM.

As to “UUGUACAUAGGAUAUAGUUGUUUGUACAUGAGGAUCACCCAUGUUAUGUAUCUUUUGCUUCUAGAAGGAUGUUCUU [JR_E5_Sub005] (puzzle: Exclusion 5)”, under setting [2], the “apparent KD of MS2 coat protein” value worked out at 32.2 nM.

Consider “UUGUACCGGUGAGGAUAUUUUUAAUAGAGCUUUAUGAUAUACAUGAGGAUCACCCAUGUUACUUUAAAGAAGGCAUCGGAUUAU [JL JR Sub091 mod 3] (Eterna round: R96, puzzle: Exclusion NG 2)”, for which the “apparent KD of MS2 coat protein” value came to 14.9 nM (input ligand: FMN 200 uM), 12 nM under setting [1] and 20.6 nM (input ligand: none).

As for “UUGUCACAUGAGGAUCACCCAUGUGAGGAUAUGGCCCGCCCGGCGUGUGCUGGUUUUGUCAGAAGGCGCGUGGG [salish99_ex1_r4_028] (Eterna round: R97, puzzle: Exclusion 1)”, the “apparent KD of MS2 coat protein” value stood at 24.6 nM (input ligand: FMN 200 uM) and 19.6 nM (input ligand: none).

For “UUGUUAUAUGAAGGAUAUACUUAACAUGAGGAUCACCCAUGUGGUGUUGUGAGUGAGUGAGUUUAGUAGAAGGUCAAUGAUUUU [JMF's solution 73] (Eterna round: R96, puzzle: Exclusion NG 2)”, the “apparent KD of MS2 coat protein” value amounted to 513 nM (input ligand: FMN 200 uM), 309 nM under setting [1] and 344 nM (input ligand: none).

As to “UUGUUCCGUGUAGGAUAUUGGCCUCCCUCGGGCCGAGAAGGACAUGAGGAUCACCCAUGUAUGCUAUUAUCGCGCGUGGCGCAC [Design 94] (Eterna round: R96, puzzle: Exclusion NG 1)”, the “apparent KD of MS2 coat protein” value was determined as 330 nM (input ligand: FMN 200 uM), 23.1 nM under setting [1] and 25.2 nM (input ligand: none).

On to “UUGUUGUAUGUAGGAUAUGCAUAUUGUUAUUAUGCAGAAGGACAUGAGGAUCACCCAUGUAUAUUAUUAUUAUAUAUUAUAUAU [Title] (Eterna round: R96, puzzle: Exclusion NG 1)”, for which, under setting [1], the “apparent KD of MS2 coat protein” value stood at 20.9 nM.

“UUUAAAACAUAGGAUAUCGAAUAAAUCAUUUAACGAGAAGGAUGAACAUGAGGAUCACCCAUGUGGUAUCAUGG [Mat - Exclusion 6 - JL Mod - D20] (puzzle: Exclusion 6)”: the “apparent KD of MS2 coat protein” value under setting [3] is 219 nM, the “apparent KD of MS2 coat protein” value under setting [2] is 183 nM and the “apparent KD of MS2 coat protein” value under setting [4] amounted to 207 nM.

As for “UUUAAGUCAGGAUAUCGUUAAUUUAAUAAAUUAAUUUAAUUCGAGAAGGGACAUGAGGAUCACCCAUGUAAUUU [Ex4 #2] (Eterna round: R97, puzzle: Exclusion 4)”, the “apparent KD of MS2 coat protein” value was 33.5 nM (input ligand: FMN 200 uM) and 28 nM (input ligand: none).

Take “UUUAAUGGAAUUAAGAUCACAUGAGGAUCACCCAUGUAUAUAUAGGAUAUCAGCUCGUGUAGAGCUGAGAAGGAUAUAUACAUA [ExNG3/6-B3] (Eterna round: R96, puzzle: Exclusion NG 3)”: the “apparent KD of MS2 coat protein” value reads like this: (input ligand: FMN 200 uM) 208 nM; under setting [1], 344 nM; (input ligand: none) 185 nM.

In the case of “UUUAAUUGUGACAUGGGUGACAUGAGGAUCACCCAUGUCACAAGCUUUUUGUUCGUCUUAUAAUUAACCCAUGUCAC [Stov1/13-B1] (Eterna round: R97, puzzle: Sensor, turn-off variant 1)”, the “apparent KD of MS2 coat protein” value was determined as 37.8 nM (input ligand: FMN 200 uM) and 123 nM (input ligand: none).

Turning to “UUUAAUUUAAUUAAGAUCACAUGAGGAUCACCCAUGUAUAUAUAGGAUAUCAGCUCGUUUAGAGCUGAGAAGGAUAUAUACAUA [ExNG3/4-A2] (Eterna round: R96, puzzle: Exclusion NG 3)”, the “apparent KD of MS2 coat protein” value reads like this: (input ligand: FMN 200 uM) 433 nM; under setting [1], 40.1 nM; (input ligand: none) 58.2 nM.

In the case of “UUUAAUUUUUUUUUUUUACAAGCUUUUUGCUCGUCUUAUACAUGAGGAUCACCCAUGUAAGUGGGAGGUAAAUUAUC [JMF 76] (puzzle: Sensor v3, turn-off variant 2)”, the “apparent KD of MS2 coat protein” value came out at 54.3 nM under setting [3], 201 nM under setting [2] and 102 nM under setting [4].

With “UUUAAUUUUUUUUUUUUACAAGCUUUUUGCUCGUCUUAUACAUGAGGAUCACCCAUGUAGGUGAAGGGUAAAUUAUC [JMF 81] (puzzle: Sensor v3, turn-off variant 2)”, the “apparent KD of MS2 coat protein” value turned out to be 17.9 nM under setting [3], 77.7 nM under setting [2] and 15.8 nM under setting [4].

On to “UUUAAUUUUUUUUUUUUACAAGCUUUUUGCUCGUCUUAUACAUGAGGAUCACCCAUGUGAAUGGGAAGUAAAUUAUC [JMF 51] (puzzle: Sensor v3, turn-off variant 2)”, for which the “apparent KD of MS2 coat protein” value under setting [3] worked out at 103 nM, the “apparent KD of MS2 coat protein” value under setting [2] was found to be 183 nM and the “apparent KD of MS2 coat protein” value under setting [4] was found to be 148 nM.

On to “UUUAAUUUUUUUUUUUUACAAGCUUUUUGCUCGUCUUAUACAUGAGGAUCACCCAUGUGGGUAGAAAAUAAAUUAUC [JMF 91] (puzzle: Sensor v3, turn-off variant 2)”, for which the “apparent KD of MS2 coat protein” value was 44.1 nM under setting [3], 65.2 nM under setting [2] and 48.7 nM under setting [4].

“UUUAAUUUUUUUUUUUUACAAGCUUUUUGCUCGUCUUAUACAUGAGGAUCACCCAUGUGGGUAGAAGGUAAAUUAUC [JMF 66] (puzzle: Sensor v3, turn-off variant 2)”: the “apparent KD of MS2 coat protein” value is 24.3 nM under setting [3], 64.9 nM under setting [2] and 22.4 nM under setting [4].

With “UUUAAUUUUUUUUUUUUACAAGCUUUUUGCUCGUCUUAUACAUGAGGAUCACCCAUGUGGGUGAAAGAUAAAUUAUC [JMF 5] (puzzle: Sensor v3, turn-off variant 2)”, the “apparent KD of MS2 coat protein” value was 54.9 nM under setting [3], 19.2 nM under setting [2] and 37.6 nM under setting [4].

Consider “UUUAGUUCAGGAUAUGAUGAAUUAUACAUGAGGAUCACCCAUGUAGAUCCUGAAUUAACAUCAGAAGGGAACAUUU [JL-ex5-4.46 Brourd mod] (Eterna round: R97, puzzle: Exclusion 5)”, for which the “apparent KD of MS2 coat protein” value reads like this: (input ligand: FMN 200 uM) 23 nM; (input ligand: none) 16.4 nM.

Consider “UUUAUAUAGUAAGGAUAUGUAUUAUUUUUUUCAACAGAAGGUACUGACAUGAGGAUCACCCAUGUUUUAGUGUGGGCAUGUAGU [JMF's solution 98] (Eterna round: R96, puzzle: Exclusion NG 1)”, for which the “apparent KD of MS2 coat protein” value under setting [1] came out at 323 nM.

For the origin of these results see the supplement of paper PMC9170038.
